According to patent publication US20110038874A1 (SHANGHAI AOSAIERSI BIOTECH, published 2011):

B1: AC88 anti-VEGFR2 monoclonal antibody (antibody, human IgG1, kappa, V domains shown)
VH: EVQLVESGGGLVKPGGSLRLSCAASGFTFSSYSMTWVRQAPGKGLEWVSSISSSSSYIYYADSVKGRFTISRDNAKNSLYLQMNSLRAEDTAVYYCAKATSGYMDVWGQGTTVTVSS
VL: DIQMTQSPSSLSASVGDRVTITCQASQDINNYLNWYQQKPGKAPKLLIYDASNLETGVPSRFSGSGSGTDFTLTISSLESEDIATYYCQQHVNYPLTFGGGTKVEIKR
notes: Fully human IgG1 kappa from a hybridoma; also called AC88 antibody; anti-VEGFR2 antibody

Tests used:
[1] = molecular target: VEGFR2 expressed on HUVEC cells (human) (UniProt P35968); test: cell-based or functional assay
[2] = molecular target: T1, mouse VEGFR2 (mouse, UniProt P35918 20-762, limits assumed); test: not described ("a further study")
T1 construct: Assay and construct of the 'further study' are not described
T1 sequence (P35918 20-762 limits assumed): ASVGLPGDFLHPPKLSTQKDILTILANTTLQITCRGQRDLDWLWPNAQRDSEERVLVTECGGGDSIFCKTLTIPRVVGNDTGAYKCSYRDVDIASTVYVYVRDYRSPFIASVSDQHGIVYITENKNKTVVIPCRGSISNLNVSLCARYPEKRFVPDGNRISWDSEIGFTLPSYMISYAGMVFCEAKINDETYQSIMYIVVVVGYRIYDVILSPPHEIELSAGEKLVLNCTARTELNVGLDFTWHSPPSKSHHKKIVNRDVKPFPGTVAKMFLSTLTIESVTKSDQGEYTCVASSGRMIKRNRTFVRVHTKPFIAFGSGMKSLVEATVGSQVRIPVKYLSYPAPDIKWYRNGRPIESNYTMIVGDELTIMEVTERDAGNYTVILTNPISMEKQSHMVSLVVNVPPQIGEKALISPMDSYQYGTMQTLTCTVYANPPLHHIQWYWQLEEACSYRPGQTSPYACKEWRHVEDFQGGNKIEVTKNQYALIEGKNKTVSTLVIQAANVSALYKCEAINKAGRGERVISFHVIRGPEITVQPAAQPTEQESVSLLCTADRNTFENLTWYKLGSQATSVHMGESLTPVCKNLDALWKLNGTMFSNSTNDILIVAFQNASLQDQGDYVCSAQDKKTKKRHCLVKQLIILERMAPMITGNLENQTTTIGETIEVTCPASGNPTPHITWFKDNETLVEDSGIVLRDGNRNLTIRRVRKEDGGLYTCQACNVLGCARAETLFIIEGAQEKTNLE

VEGFR2 expressed on HUVEC cells (human), sequence (P35968 20-1356): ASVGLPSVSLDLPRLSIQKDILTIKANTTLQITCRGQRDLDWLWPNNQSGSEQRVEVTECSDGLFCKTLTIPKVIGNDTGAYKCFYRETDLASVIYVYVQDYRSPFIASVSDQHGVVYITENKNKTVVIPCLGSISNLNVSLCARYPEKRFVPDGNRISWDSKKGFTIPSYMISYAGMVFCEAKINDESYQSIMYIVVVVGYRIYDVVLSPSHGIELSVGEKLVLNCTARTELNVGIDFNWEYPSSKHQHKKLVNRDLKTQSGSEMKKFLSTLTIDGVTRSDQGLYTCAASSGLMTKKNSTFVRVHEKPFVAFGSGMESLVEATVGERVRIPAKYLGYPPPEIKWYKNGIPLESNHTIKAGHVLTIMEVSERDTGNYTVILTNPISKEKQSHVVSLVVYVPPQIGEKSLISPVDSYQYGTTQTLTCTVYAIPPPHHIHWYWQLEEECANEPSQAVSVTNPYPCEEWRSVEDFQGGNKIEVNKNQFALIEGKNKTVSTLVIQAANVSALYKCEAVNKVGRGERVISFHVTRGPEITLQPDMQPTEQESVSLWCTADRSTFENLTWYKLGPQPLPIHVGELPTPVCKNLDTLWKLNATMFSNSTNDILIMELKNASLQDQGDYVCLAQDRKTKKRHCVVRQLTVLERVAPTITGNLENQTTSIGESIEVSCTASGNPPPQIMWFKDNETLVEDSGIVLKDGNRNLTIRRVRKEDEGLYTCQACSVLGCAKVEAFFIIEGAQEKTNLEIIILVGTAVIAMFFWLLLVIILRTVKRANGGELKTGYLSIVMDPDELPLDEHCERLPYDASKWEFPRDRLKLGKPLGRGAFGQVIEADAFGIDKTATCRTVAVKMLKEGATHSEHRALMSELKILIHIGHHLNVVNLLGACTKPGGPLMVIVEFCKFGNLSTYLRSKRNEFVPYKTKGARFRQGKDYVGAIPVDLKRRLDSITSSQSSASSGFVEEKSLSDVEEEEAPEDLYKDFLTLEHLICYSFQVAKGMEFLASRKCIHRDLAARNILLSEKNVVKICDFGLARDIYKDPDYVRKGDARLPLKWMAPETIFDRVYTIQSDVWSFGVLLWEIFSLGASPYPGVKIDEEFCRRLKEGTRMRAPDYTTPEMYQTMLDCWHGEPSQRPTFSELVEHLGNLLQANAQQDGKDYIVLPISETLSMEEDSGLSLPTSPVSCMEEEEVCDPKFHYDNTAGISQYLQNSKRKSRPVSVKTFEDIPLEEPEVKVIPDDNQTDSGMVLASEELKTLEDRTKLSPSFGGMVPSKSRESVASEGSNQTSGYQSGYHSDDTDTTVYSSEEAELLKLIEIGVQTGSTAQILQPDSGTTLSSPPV

Row | Molecule | HUVEC proliferation (VEGF-induced, cell count after 48 hours) [1] | binding result [2]
1 | normal IgG (antibody) | 1 µg/mL | 
2 | B1 |  | no binding
